# According to patent US20220112244A1 (DOMPE FARMACEUTICI S P A, published 2022):
# Target: IL-17A (agonist in the IL-17RA/IL17RC dimerization assay) (UniProt Q16552 24-155)
# Test: cell-based or functional assay
# Sequence of IL-17A (agonist in the IL-17RA/IL17RC dimerization assay) (Q16552 24-155 limits assumed): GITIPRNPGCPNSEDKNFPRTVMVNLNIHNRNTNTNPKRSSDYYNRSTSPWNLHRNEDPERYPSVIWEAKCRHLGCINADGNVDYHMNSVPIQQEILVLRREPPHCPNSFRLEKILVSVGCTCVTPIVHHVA
row,Binder,IC50 in IL-17RA/IL7RC dimerization assay
1,Ac-IEVTIPADLWDWINK-NH2 [peptide of SEQ ID NO: 164],< 10 µM
2,Ac-IQVTIPADLWDWINK-NH2 [peptide of SEQ ID NO: 165],< 10 µM
3,Ac-IYVTIPADLWDWINK-NH2 [peptide of SEQ ID NO: 166],< 10 µM
4,Ac-IHATIPADLWDWINK-NH2 [peptide of SEQ ID NO: 167],< 10 µM
5,Ac-IHGTIPADLWDWINK-NH2 [peptide of SEQ ID NO: 168],< 10 µM
6,Ac-IHLTIPADLWDWINK-NH2 [peptide of SEQ ID NO: 169],< 10 µM
7,Ac-IHPTIPADLWDWINK-NH2 [peptide of SEQ ID NO: 170],< 10 µM
8,Ac-IHITIPADLWDWINK-NH2 [peptide of SEQ ID NO: 171],< 10 µM
9,Ac-IHYTIPADLWDWINK-NH2 [peptide of SEQ ID NO: 172],< 10 µM
10,Ac-IHWTIPADLWDWINK-NH2 [peptide of SEQ ID NO: 173],< 10 µM
11,Ac-IHVTIPADLWDWIEK-NH2 [peptide of SEQ ID NO: 11],< 0.4 µM
12,Ac-IHFTIPADLWDWINK-NH2 [peptide of SEQ ID NO: 174],< 10 µM
13,Ac-IHVSIPADLWDWINK-NH2 [peptide of SEQ ID NO: 175],< 10 µM
14,Ac-IHVYIPADLWDWINK-NH2 [peptide of SEQ ID NO: 176],< 10 µM
15,Ac-IHVNIPADLWDWINK-NH2 [peptide of SEQ ID NO: 177],< 10 µM
16,Ac-IHVQIPADLWDWINK-NH2 [peptide of SEQ ID NO: 178],< 10 µM
17,Ac-IHVTAPADLWDWINK-NH2 [peptide of SEQ ID NO: 179],< 10 µM
18,Ac-IHVTGPADLWDWINK-NH2 [peptide of SEQ ID NO: 180],< 10 µM
19,Ac-IHVTLPADLWDWINK-NH2 [peptide of SEQ ID NO: 181],< 10 µM
20,Ac-IHVTVPADLWDWINK-NH2 [peptide of SEQ ID NO: 183],< 10 µM
21,Ac-IHVTFPADLWDWINK-NH2 [peptide of SEQ ID NO: 184],< 10 µM

row,Binder,IC50 in IL-17RA/IL7RC dimerization assay
1,Ac-IHVTYPADLWDWINK-NH2 [peptide of SEQ ID NO: 185],< 10 µM
2,Ac-IHVTIGADLWDWINK-NH2 [peptide of SEQ ID NO: 187],< 10 µM
3,Ac-IHVTILADLWDWINK-NH2 [peptide of SEQ ID NO: 188],< 10 µM
4,Ac-IHVTIVADLWDWINK-NH2 [peptide of SEQ ID NO: 189],< 10 µM
5,Ac-IHVTIIADLWDWINK-NH2 [peptide of SEQ ID NO: 190],< 10 µM
6,Ac-IHVTINADLWDWINK-NH2 [peptide of SEQ ID NO: 191],< 10 µM
7,Ac-IHVTIPLDLWDWINK-NH2 [peptide of SEQ ID NO: 193],< 10 µM
8,Ac-IHVTIPPDLWDWINK-NH2 [peptide of SEQ ID NO: 194],< 10 µM
9,Ac-IHVTIPVDLWDWINK-NH2 [peptide of SEQ ID NO: 195],< 10 µM
10,Ac-IHVTIPIDLWDWINK-NH2 [peptide of SEQ ID NO: 196],< 10 µM
11,Ac-IHVTIPNDLWDWINK-NH2 [peptide of SEQ ID NO: 197],< 10 µM
12,Ac-IHVTIPQDLWDWINK-NH2 [peptide of SEQ ID NO: 198],< 10 µM
13,Ac-IHVTIPAQLWDWINK-NH2 [peptide of SEQ ID NO: 199],< 10 µM
14,Ac-IHVTIPAYLWDWINK-NH2 [peptide of SEQ ID NO: 200],< 10 µM
15,Ac-IHVTIPADAWDWINK-NH2 [peptide of SEQ ID NO: 201],< 10 µM
16,Ac-IHVTIPADGWDWINK-NH2 [peptide of SEQ ID NO: 202],< 10 µM
17,Ac-IHVTIPADPWDWINK-NH2 [peptide of SEQ ID NO: 203],< 10 µM
18,Ac-IHVTIPADVWDWINK-NH2 [peptide of SEQ ID NO: 204],< 10 µM
19,Ac-IHVTIPADIWDWINK-NH2 [peptide of SEQ ID NO: 205],< 10 µM
20,Ac-IHVTIPADLHDWINK-NH2 [peptide of SEQ ID NO: 206],< 10 µM
21,Ac-IHVTIPADLFDWINK-NH2 [peptide of SEQ ID NO: 207],< 10 µM

row,Binder,IC50 in IL-17RA/IL7RC dimerization assay
1,Ac-IHVTIPADLWNWINK-NH2 [peptide of SEQ ID NO: 208],< 10 µM
2,Ac-IHVTIPADLWDHINK-NH2 [peptide of SEQ ID NO: 209],< 10 µM
3,Ac-IHVTIPADLWDFINK-NH2 [peptide of SEQ ID NO: 210],< 10 µM
4,Ac-IHVTIPADLWDYINK-NH2 [peptide of SEQ ID NO: 211],< 10 µM
5,Ac-IHVTIPADLWDWENK-NH2 [peptide of SEQ ID NO: 212],< 10 µM
6,Ac-IHVTIPADLWDWKNK-NH2 [peptide of SEQ ID NO: 213],< 10 µM
7,Ac-IHVTIPADLWDWVEE-NH2 [peptide of SEQ ID NO: 15],< 0.4 µM
8,Ac-IHVTIPADLWDWANK-NH2 [peptide of SEQ ID NO: 214],< 10 µM
9,Ac-IHVTIPADLWDWGNK-NH2 [peptide of SEQ ID NO: 215],< 10 µM
10,Ac-IHVTIPADLWDWLNK-NH2 [peptide of SEQ ID NO: 216],< 10 µM
11,Ac-IHVTIPADLWDWPNK-NH2 [peptide of SEQ ID NO: 217],< 10 µM
12,Ac-IHVTIPADLWDWFNK-NH2 [peptide of SEQ ID NO: 218],< 10 µM
13,Ac-IHVTIPADLWDWYNK-NH2 [peptide of SEQ ID NO: 219],< 10 µM
14,Ac-IHVTIPADLWDWIQK-NH2 [peptide of SEQ ID NO: 220],< 10 µM
15,Ac-IHVTIPADLWDWIDK-NH2 [peptide of SEQ ID NO: 221],< 10 µM
16,Ac-IHVTIPADLWDWINH-NH2 [peptide of SEQ ID NO: 222],< 10 µM
17,Ac-IHVTIPADLWDWIND-NH2 [peptide of SEQ ID NO: 223],< 10 µM
18,Ac-VMVTIPADLYEWINK-NH2 [peptide of SEQ ID NO: 16],< 0.4 µM
19,Ac-VHVTVPQELWEWVRR-NH2 [peptide of SEQ ID NO: 224],< 10 µM
20,Ac-VHVTVPQELFEWVRR-NH2 [peptide of SEQ ID NO: 225],< 10 µM
21,Ac-VHVTVPQELYEWVRR-NH2 [peptide of SEQ ID NO: 226],< 10 µM
